{
  "source": "paper PMC5340008",
  "about": "(BMC Biochemistry, 2017)",
  "molecules": {"B1": {"name": "BLIP [change] (natural protein)", "chain": "AGVMTGAKFTQIQFGMTRQQVLDIAGAENCETGGSFGDSIHCRGHAAGDQYAYATFGFTSAAADAKVDSKSQEKLLAPSAPTLTLAKFNQVTVGMTRAQVLATVGQGSCTTWSEYYPAYPSTAGVTLSLSCFDVDGYSSTGFYRGSAHLWFTDGVLQGKRQWDLV"}, "B2": {"name": "BLIP [change] (natural protein)", "chain": "B1 chain with Q50V"}, "B3": {"name": "BLIP [change] (natural protein)", "chain": "B1 chain with Q50C"}, "B4": {"name": "BLIP [change] (natural protein)", "chain": "B1 chain with Q50P"}, "B5": {"name": "BLIP [change] (natural protein)", "chain": "B1 chain with Q50N"}, "B6": {"name": "BLIP [change] (natural protein)", "chain": "B1 chain with Q50A"}, "B7": {"name": "BLIP [change] (natural protein)", "chain": "B1 chain with Q50L"}, "B8": {"name": "BLIP [change] (natural protein)", "chain": "B1 chain with Q50H"}, "B9": {"name": "BLIP [change] (natural protein)", "chain": "B1 chain with Q50M"}, "B10": {"name": "BLIP [change] (natural protein)", "chain": "B1 chain with Q50K"}, "B11": {"name": "BLIP [change] (natural protein)", "chain": "B1 chain with Q50G"}, "B12": {"name": "BLIP [change] (natural protein)", "chain": "B1 chain with Q50F"}, "B13": {"name": "BLIP [change] (natural protein)", "chain": "B1 chain with Q50D"}, "B14": {"name": "BLIP [change] (natural protein)", "chain": "B1 chain with Q50E"}, "B15": {"name": "BLIP [change] (natural protein)", "chain": "B1 chain with Q50T"}, "B16": {"name": "BLIP [change] (natural protein)", "chain": "B1 chain with Q50S"}, "B17": {"name": "BLIP [change] (natural protein)", "chain": "B1 chain with Q50W"}, "B18": {"name": "BLIP [change] (natural protein)", "chain": "B1 chain with Q50R"}},
  "note": "Numbering of substitutions follows the chain as printed.",
  "data": [
    {"target": "KPC-2 β-lactamase (UniProt Q9F663 25-293)", "experiment": "β-lactamase inhibition assay (nitrocefin hydrolysis, Morrison tight-binding fit); increasing concentrations of BLIP incubated with 1 nM β-lactamase for 1 h at room temperature in 50 mM sodium phosphate pH 7.0; nitrocefin added at its Km, initial velocity at 482 nm; Ki calculated from Ki app", "conditions": "both partners purified", "units": {"Ki": "nM"}, "values": [
      {"molecule": "B1", "Ki": 1},
      {"molecule": "B2", "Ki": 10},
      {"molecule": "B3", "Ki": 42},
      {"molecule": "B4", "Ki": 5},
      {"molecule": "B5", "Ki": 3.8},
      {"molecule": "B6", "Ki": 1.9},
      {"molecule": "B7", "Ki": 0.7},
      {"molecule": "B8", "Ki": 1.4},
      {"molecule": "B9", "Ki": 0.5},
      {"molecule": "B10", "Ki": 260},
      {"molecule": "B11", "Ki": 0.72},
      {"molecule": "B12", "Ki": 15},
      {"molecule": "B13", "Ki": 3.2},
      {"molecule": "B14", "Ki": 5.5},
      {"molecule": "B15", "Ki": 3.5},
      {"molecule": "B16", "Ki": 5},
      {"molecule": "B17", "Ki": 1.1},
      {"molecule": "B18", "Ki": 11}
    ]},
    {"target": "TEM-1 β-lactamase (UniProt P62593 24-286)", "experiment": "β-lactamase inhibition assay (nitrocefin hydrolysis, Morrison tight-binding fit); increasing concentrations of BLIP incubated with 1 nM β-lactamase for 1 h at room temperature in 50 mM sodium phosphate pH 7.0; nitrocefin added at its Km, initial velocity at 482 nm; Ki calculated from Ki app", "conditions": "both partners purified", "units": {"Ki": "nM"}, "values": [
      {"molecule": "B1", "Ki": 0.24},
      {"molecule": "B2", "Ki": 3.5},
      {"molecule": "B3", "Ki": 60},
      {"molecule": "B4", "Ki": 40},
      {"molecule": "B5", "Ki": 7.8},
      {"molecule": "B7", "Ki": 0.17},
      {"molecule": "B8", "Ki": 5},
      {"molecule": "B9", "Ki": 0.11},
      {"molecule": "B10", "Ki": 195},
      {"molecule": "B11", "Ki": 0.4},
      {"molecule": "B12", "Ki": 10.3},
      {"molecule": "B13", "Ki": 160},
      {"molecule": "B14", "Ki": 76},
      {"molecule": "B15", "Ki": 2.5},
      {"molecule": "B16", "Ki": 1.1},
      {"molecule": "B17", "Ki": 11},
      {"molecule": "B18", "Ki": 69}
    ]},
    {"target": "Bacillus anthracis Bla1 β-lactamase (Bacillus anthracis)", "experiment": "not given", "conditions": "not given", "units": {"Ki": "nM"}, "values": [
      {"molecule": "β-lactamase inhibitory protein (BLIP), wild type (from UniProt P35804 37-201) (natural protein)", "Ki": 2.5}
    ]}
  ]
}
